For this experiment, the target named is T1, 合成的G6PC多肽 (synthetic G6PC immunogen peptide, sequence range 80-120aa) (human) (UniProt P35575).
T1 sequence (peptide, looked up): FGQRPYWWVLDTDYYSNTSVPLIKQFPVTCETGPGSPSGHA
In words: indirect ELISA, serial two-fold dilution of the antibody; coating antigen not stated (taken to be the immunogen peptide). For orientation: ELISA stands for enzyme-linked immunosorbent assay.

B1: 兔单克隆抗体OTIR5G10 (rabbit anti-human glucose-6-phosphatase (G6PC) monoclonal antibody OTIR5G10) (antibody, V domains shown)
VH: QSVEESGGRLVTPGTPLTLTCTVSGADLSTYGVIWVRQAPGKGLEYIAAIVSGGRPYYRHWAKGRFTISKTSSTTVELKITSPTTEDTATYFCVLGNLWGQGTLVTVSS
VL: AQVLTQTASPVSAAVGGTVTINCQASQSVYSNNYLSWFQQKPGQPPKQLIYRASKLASGVSSRFKGSGSGTQFTLTISDVQCDDAATYYCLGGYDCSSADFGGGTEVVVK
Regarding B1, the 抗体效价 (ELISA titer) was determined as 1.2e+07.

The values above are taken from patent CN116554335A.
